Results: patent US20240327534A1 (HARPOON THERAPEUTICS, published 2024)

T1: human BCMA on BCMA expressing cell lines (human, UniProt Q02223 1-184)
T1 sequence: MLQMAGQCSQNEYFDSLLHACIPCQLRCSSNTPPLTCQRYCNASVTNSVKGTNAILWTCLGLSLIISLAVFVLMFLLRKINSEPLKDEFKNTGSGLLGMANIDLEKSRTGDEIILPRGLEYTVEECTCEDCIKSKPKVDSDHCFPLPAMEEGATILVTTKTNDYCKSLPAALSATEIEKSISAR

T2: human BCMA protein (human, UniProt Q02223 1-54, limits assumed)
T2 sequence: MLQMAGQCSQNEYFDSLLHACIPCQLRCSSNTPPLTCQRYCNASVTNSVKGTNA


Experiments:
[1] = biological target: T1, human BCMA on BCMA expressing cell lines; experiment: cell-based or functional assay
[2] = biological target: T2, human BCMA protein; experiment: affinity to human BCMA protein, method not stated

| Binder | TDCC EC50 (EJM cells) [1] [nM] | Kd [2] [nM] |
| --- | --- | --- |
| BCMA targeting trispecific protein 01D03 (other, trispecific; not shown: anti-albumin domain, anti-CD3 domain and the linkers of the trispecific (TriTAC) format) VHH: EVQLVESGGGLVQPGRSLTLSCAASTNIFSNSPMGWYRQAPGKQRELVAAIHGDSTLYADSVKGRFTISRDNAKNSIYLQMNSLRPEDTALYYCNKVPWGDYHPRNVRWGQGTQVTVSS | 0.0149 | 20.9 |
| BCMA targeting trispecific protein 01D04 (other, trispecific; not shown: anti-albumin domain, anti-CD3 domain and the linkers of the trispecific (TriTAC) chain; the C-terminal 6xHis tag follows these missing domains and is left out) VHH: EVQLVESGGGLVQPGRSLTLSCAASTNITSISPMGWYRQAPGKQRELVAAIHGVSTLYADSVKGRFTISRDNAKNSIYLQMNSLRPEDTALYYCNKVPWGDYHPRNVQWGQGTQVTVSS | 0.016 | 18.9 |
| BCMA targeting trispecific protein 01D05 (other, trispecific; not shown: anti-albumin domain, anti-CD3 domain and the linkers of the trispecific (TriTAC) chain; the C-terminal 6xHis tag follows these missing domains and is left out) VHH: EVQLVESGGGLVQPGRSLTLSCAASTNIFSDSPMGWYRQAPGKQRELVAAIHGTSTLYADSVKGRFTISRDNAKNSIYLQMNSLRPEDTALYYCNKVPWGDYHPRNVYWGQGTQVTVSS | 0.0166 | 17.8 |
| BCMA targeting trispecific protein 01D06 (other, trispecific; not shown: anti-albumin domain, anti-CD3 domain and the linkers of the trispecific (TriTAC) format) VHH: EVQLVESGGGLVQPGRSLTLSCAASTNIFSRSPMGWYRQAPGKQRELVAAIHGDSTLYADSVKGRFTISRDNAKNSIYLQMNSLRPEDTALYYCNKVPWGDYHPRNVTWGQGTQVTVSS | 0.0135 | 14.9 |
| BCMA targeting trispecific protein 01D07 (other, not shown: large carriers; small tags and cut ends, trispecific) VHH: EVQLVESGGGLVQPGRSLTLSCAASTNIFSASPMGWYRQAPGKQRELVAAIHGSSTLYADSVKGRFTISRDNAKNSIYLQMNSLRPEDTALYYCNKVPWGDYHPRNVNWGQGTQVTVSS | 0.0196 | 19.3 |
| BCMA targeting trispecific protein 01D10 (other, trispecific; not shown: anti-albumin domain, anti-CD3 domain and the linkers of the trispecific; the C-terminal His6 that follows them is left out) VHH: EVQLVESGGGLVQPGRSLTLSCAASTNIFSASPMGWYRQAPGKQRELVAAIHGSSTLYADSVKGRFTISRDNAKNSIYLQMNSLRPEDTALYYCNKVPWGRYHPRNVYWGQGTQVTVSS | 0.453 | 53.9 |
| BCMA targeting trispecific protein 01E03 (other, not shown: large carriers; small tags and cut ends, trispecific) VHH: EVQLVESGGGLVQPGRSLTLSCAASTNITSISPMGWYRQAPGKQRELVAAIHGDSTLYADSVKGRFTISRDNAKNSIYLQMNSLRPEDTALYYCNKVPWGDYHPGNVYWGQGTQVTVSS | 0.00298 | 6.36 |
| BCMA targeting trispecific protein 01E04 (other, not shown: large carriers; small tags and cut ends, trispecific) VHH: EVQLVESGGGLVQPGRSLTLSCAASTNIASISPMGWYRQAPGKQRELVAAIHGTSTLYADSVKGRFTISRDNAKNSIYLQMNSLRPEDTALYYCNKVPWGDYHPGNVYWGQGTQVTVSS | 0.00267 | 7.29 |
| BCMA targeting trispecific protein 01E05 (other, trispecific; not shown: the C-terminal 6xHis tag follows those missing domains and is left out) VHH: EVQLVESGGGLVQPGRSLTLSCAASTNIFSRSPMGWYRQAPGKQRELVAAIHGTSTLYADSVKGRFTISRDNAKNSIYLQMNSLRPEDTALYYCNKVPWGKYHPRNVYWGQGTQVTVSS | 0.0108 | 11.7 |
| BCMA targeting trispecific protein 01E06 (other, not shown: large carriers; small tags and cut ends, trispecific) VHH: EVQLVESGGGLVQPGRSLTLSCAASTNIFSLSPMGWYRQAPGKQRELVAAIHGDSTLYADSVKGRFTISRDNAKNSIYLQMNSLRPEDTALYYCNKVPWGDYHPRNVYWGQGTQVTVSS | 0.00377 | 8.91 |
| BCMA targeting trispecific protein 01E07 (other, trispecific; not shown: anti-albumin domain, anti-CD3 domain and the linkers of the trispecific (TriTAC) chain; the C-terminal 6xHis tag follows these missing domains and is left out) VHH: EVQLVESGGGLVQPGRSLTLSCAASTNIPSISPMGWYRQAPGKQRELVAAIHGQSTLYADSVKGRFTISRDNAKNSIYLQMNSLRPEDTALYYCNKVPWGDYHPRNVQWGQGTQVTVSS | 0.0192 | 19.9 |
| BCMA targeting trispecific protein 01E08 (other, not shown: large carriers; small tags and cut ends, trispecific) VHH: EVQLVESGGGLVQPGRSLTLSCAASTNIFSQSPMGWYRQAPGKQRELVAAIHGDSTLYADSVKGRFTISRDNAKNSIYLQMNSLRPEDTALYYCNKVPWGDYHPGNVCWGQGTQVTVSS | 0.0015 | 5.56 |
| BCMA targeting trispecific protein 01E10 (other, trispecific; not shown: the C-terminal 6xHis tag follows those domains and is left out) VHH: EVQLVESGGGLVQPGRSLTLSCAASTNIESISPMGWYRQAPGKQRELVAAIHGKSTLYADSVKGRFTISRDNAKNSIYLQMNSLRPEDTALYYCNKVPWGDYHPRRVYWGQGTQVTVSS | 0.0623 | 18.5 |
| BCMA targeting trispecific protein 01F02 (other, trispecific; not shown: anti-albumin domain, anti-CD3 domain and the linkers of the trispecific; the C-terminal His6 that follows them is left out) VHH: EVQLVESGGGLVQPGRSLTLSCAASTNIFSHSPMGWYRQAPGKQRELVAAIHGTSTLYADSVKGRFTISRDNAKNSIYLQMNSLRPEDTALYYCNKVPWGRYHPRNVYWGQGTQVTVSS | 0.225 | 41.3 |
| BCMA targeting trispecific protein 01F03 (other, trispecific; not shown: the C-terminal 6xHis tag follows those domains and is left out) VHH: EVQLVESGGGLVQPGRSLTLSCAASTNIFSESPMGWYRQAPGKQRELVAAIHGNSTLYADSVKGRFTISRDNAKNSIYLQMNSLRPEDTALYYCNKVPWGTYHPRNVYWGQGTQVTVSS | 0.0764 | 15 |
| BCMA targeting trispecific protein 01F04 (other, trispecific; not shown: the C-terminal His6 follows those missing domains and is left out) VHH: EVQLVESGGGLVQPGRSLTLSCAASTNIDSISPMGWYRQAPGKQRELVAAIHGFQTLYADSVKGRFTISRDNAKNSIYLQMNSLRPEDTALYYCNKVPWGDYHPGNVYWGQGTQVTVSS | 0.00221 | 6.55 |
| BCMA targeting trispecific protein 01F05 (other, trispecific; not shown: The C-terminal 6xHis tag is left out because it follows these missing domains) VHH: EVQLVESGGGLVQPGRSLTLSCAASTNIFSSSPMGWYRQAPGKQRELVAAIHGFSTWYADSVKGRFTISRDNAKNSIYLQMNSLRPEDTALYYCNKVPWGRYHPRNVYWGQGTQVTVSS | 0.0372 | 16.7 |
| BCMA targeting trispecific protein 01F08 (other, trispecific; not shown: the C-terminal 6xHis tag follows those domains and is left out) VHH: EVQLVESGGGLVQPGRSLTLSCAASTNITSVSPMGWYRQAPGKQRELVAAIHGPSTLYADSVKGRFTISRDNAKNSIYLQMNSLRPEDTALYYCNKVPWGDYHPTNVYWGQGTQVTVSS | 0.0712 | 21.4 |
| BCMA targeting trispecific protein 01F09 (other, trispecific; not shown: anti-albumin domain, anti-CD3 domain and the linkers of the trispecific; the C-terminal His6 that follows them is left out) VHH: EVQLVESGGGLVQPGRSLTLSCAASTNISSISPMGWYRQAPGKQRELVAAIHGHSTLYADSVKGRFTISRDNAKNSIYLQMNSLRPEDTALYYCNKVPWGRYHPRNVYWGQGTQVTVSS | 0.945 | 52.8 |
| BCMA targeting trispecific protein 01F10 (other, trispecific; not shown: the C-terminal 6xHis tag follows those missing domains and is left out) VHH: EVQLVESGGGLVQPGRSLTLSCAASSNIFSISPMGWYRQAPGKQRELVAAIHGESTLYADSVKGRFTISRDNAKNSIYLQMNSLRPEDTALYYCNKVPWGDYHPRNVTWGQGTQVTVSS | 0.00744 | 14.4 |
| BCMA targeting trispecific protein 01F12 (other, trispecific; not shown: anti-albumin domain, anti-CD3 domain and the linkers of the trispecific; the C-terminal His6 that follows them is left out) VHH: EVQLVESGGGLVQPGRSLTLSCAASTNIFRISPMGWYRQAPGKQRELVAAIHGDSTLYADSVKGRFTISRDNAKNSIYLQMNSLRPEDTALYYCNKVPWGRYHPRNVYWGQGTQVTVSS | 0.392 | 40.5 |
| BCMA targeting trispecific protein 01G01 (other, trispecific; not shown: the C-terminal 6xHis tag follows those missing domains and is left out) VHH: EVQLVESGGGLVQPGRSLTLSCAASTNIVSISPMGWYRQAPGKQRELVAAIHGDSTLYADSVKGRFTISRDNAKNSIYLQMNSLRPEDTALYYCNKVPWGDYHPRRVYWGQGTQVTVSS | 0.00583 | 14.6 |
| BCMA targeting trispecific protein 01G04 (other, not shown: large carriers; small tags and cut ends, trispecific) VHH: EVQLVESGGGLVQPGRSLTLSCAASTNIDSISPMGWYRQAPGKQRELVAAIHGNSTLYADSVKGRFTISRDNAKNSIYLQMNSLRPEDTALYYCNKVPWGDYHPRMVYWGQGTQVTVSS | 0.0241 | 11.7 |
| BCMA targeting trispecific protein 01G06 (other, not shown: large carriers; small tags and cut ends, trispecific) VHH: EVQLVESGGGLVQPGRSLTLSCAASTNIFSRSPMGWYRQAPGKQRELVAAIHGFETLYADSVKGRFTISRDNAKNSIYLQMNSLRPEDTALYYCNKVPWGDYHPRNVLWGQGTQVTVSS | 0.0192 | 17 |
| BCMA targeting trispecific protein 01G09 (other, trispecific; not shown: anti-albumin domain, anti-CD3 domain and the linkers of the trispecific; the C-terminal His6 that follows them is left out) VHH: EVQLVESGGGLVQPGRSLTLSCAASTNIFNISPMGWYRQAPGKQRELVAAIHGFSTYYADSVKGRFTISRDNAKNSIYLQMNSLRPEDTALYYCNKVPWGRYHPRNVYWGQGTQVTVSS | 0.441 | 87.8 |
| BCMA targeting trispecific protein 01G10 (other, not shown: large carriers; small tags and cut ends, trispecific) VHH: EVQLVESGGGLVQPGRSLTLSCAASTNEFSISPMGWYRQAPGKQRELVAAIHGLSTLYADSVKGRFTISRDNAKNSIYLQMNSLRPEDTALYYCNKVPWGAYHPRNVYWGQGTQVTVSS | 0.143 | 41.9 |
| BCMA targeting trispecific protein 01G11 (other, not shown: large carriers; small tags and cut ends, trispecific) VHH: EVQLVESGGGLVQPGRSLTLSCAASTNIPSISPMGWYRQAPGKQRELVAAIHGASTLYADSVKGRFTISRDNAKNSIYLQMNSLRPEDTALYYCNKVPWGDYHPRNVAWGQGTQVTVSS | 0.00398 | 9.7 |
| BCMA targeting trispecific protein 01H01 (other, not shown: large carriers; small tags and cut ends, trispecific) VHH: EVQLVESGGGLVQPGRSLTLSCAASTNIGSISPMGWYRQAPGKQRELVAAIHGQSTLYADSVKGRFTISRDNAKNSIYLQMNSLRPEDTALYYCNKVPWGDYHPQNVYWGQGTQVTVSS | 0.118 | 35.9 |
| BCMA targeting trispecific protein 01H04 (other, trispecific; not shown: anti-albumin domain, anti-CD3 domain and the linkers of the trispecific (TriTAC) format) VHH: EVQLVESGGGLVQPGRSLTLSCAASTNIFSKSPMGWYRQAPGKQRELVAAIHGQSTLYADSVKGRFTISRDNAKNSIYLQMNSLRPEDTALYYCNKVPWGDYHPRNVTWGQGTQVTVSS | 0.0147 | 17.4 |
| BCMA targeting trispecific protein 01H05 (other, not shown: large carriers; small tags and cut ends, trispecific) VHH: EVQLVESGGGLVQPGRSLTLSCAASTNIFSITPMGWYRQAPGKQRELVAAIHGTSTLYADSVKGRFTISRDNAKNSIYLQMNSLRPEDTALYYCNKVPWGRYHPRNVYWGQGTQVTVSS | 0.0454 | 27.4 |
